According to doi:10.1101/2021.02.18.431813 (bioRxiv, 2021):

Assays:
Assay in all cases: PIE-FCCS
PIE-FCCS = target: the molecule itself
Plexin A4 = Plexin A4 (human, UniProt Q9HCM2 24-1894)
Plexin A4ΔSema = target: T1, Plexin A4ΔSema (human, UniProt Q9HCM2 24-1894, deletes residues 39-506)
T1 sequence (looked up): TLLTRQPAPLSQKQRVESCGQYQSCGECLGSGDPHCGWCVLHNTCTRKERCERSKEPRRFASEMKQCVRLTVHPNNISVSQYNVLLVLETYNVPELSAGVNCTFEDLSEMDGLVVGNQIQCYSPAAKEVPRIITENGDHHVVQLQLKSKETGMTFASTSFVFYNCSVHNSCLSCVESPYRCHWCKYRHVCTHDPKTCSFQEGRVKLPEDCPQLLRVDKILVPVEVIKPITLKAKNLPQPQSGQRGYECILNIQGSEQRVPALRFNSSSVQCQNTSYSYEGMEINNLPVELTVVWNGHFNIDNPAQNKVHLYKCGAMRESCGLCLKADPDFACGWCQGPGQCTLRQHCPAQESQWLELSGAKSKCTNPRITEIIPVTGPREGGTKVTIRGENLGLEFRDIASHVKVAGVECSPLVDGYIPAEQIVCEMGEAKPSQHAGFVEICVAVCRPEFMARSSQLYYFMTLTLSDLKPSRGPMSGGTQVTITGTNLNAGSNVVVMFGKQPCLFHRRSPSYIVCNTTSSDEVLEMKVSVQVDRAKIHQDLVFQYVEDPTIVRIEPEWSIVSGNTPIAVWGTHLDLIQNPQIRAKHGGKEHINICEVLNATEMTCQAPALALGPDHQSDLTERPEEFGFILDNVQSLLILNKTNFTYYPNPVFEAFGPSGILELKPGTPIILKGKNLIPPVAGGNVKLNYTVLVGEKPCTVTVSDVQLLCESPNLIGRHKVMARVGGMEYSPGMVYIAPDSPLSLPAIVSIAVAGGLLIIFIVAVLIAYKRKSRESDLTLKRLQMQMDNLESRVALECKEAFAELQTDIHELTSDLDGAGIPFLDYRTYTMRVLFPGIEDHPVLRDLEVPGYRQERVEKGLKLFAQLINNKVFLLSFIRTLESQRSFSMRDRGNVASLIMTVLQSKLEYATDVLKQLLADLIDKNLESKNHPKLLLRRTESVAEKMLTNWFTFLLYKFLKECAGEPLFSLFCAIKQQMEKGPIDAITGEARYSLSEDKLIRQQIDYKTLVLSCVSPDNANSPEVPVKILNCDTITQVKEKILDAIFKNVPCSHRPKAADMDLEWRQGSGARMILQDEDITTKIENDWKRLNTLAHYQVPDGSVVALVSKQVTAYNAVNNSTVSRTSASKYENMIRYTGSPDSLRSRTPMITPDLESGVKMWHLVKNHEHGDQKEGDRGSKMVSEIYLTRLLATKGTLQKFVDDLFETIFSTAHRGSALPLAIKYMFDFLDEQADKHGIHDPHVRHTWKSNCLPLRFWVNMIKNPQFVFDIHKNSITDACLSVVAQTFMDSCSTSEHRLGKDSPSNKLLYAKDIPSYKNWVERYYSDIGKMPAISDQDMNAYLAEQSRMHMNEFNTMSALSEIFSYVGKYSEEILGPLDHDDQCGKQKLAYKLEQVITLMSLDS

B1: Plexin A2 (receptor, human, UniProt O75051 35-1894, looked up)
chain: MPQFSTFHSENRDWTFNHLTVHQGTGAVYVGAINRVYKLTGNLTIQVAHKTGPEEDNKSCYPPLIVQPCSEVLTLTNNVNKLLIIDYSENRLLACGSLYQGVCKLLRLDDLFILVEPSHKKEHYLSSVNKTGTMYGVIVRSEGEDGKLFIGTAVDGKQDYFPTLSSRKLPRDPESSAMLDYELHSDFVSSLIKIPSDTLALVSHFDIFYIYGFASGGFVYFLTVQPETPEGVAINSAGDLFYTSRIVRLCKDDPKFHSYVSLPFGCTRAGVEYRLLQAAYLAKPGDSLAQAFNITSQDDVLFAIFSKGQKQYHHPPDDSALCAFPIRAINLQIKERLQSCYQGEGNLELNWLLGKDVQCTKAPVPIDDNFCGLDINQPLGGSTPVEGLTLYTTSRDRMTSVASYVYNGYSVVFVGTKSGKLKKIRADGPPHGGVQYEMVSVLKDGSPILRDMAFSIDQRYLYVMSERQVTRVPVESCEQYTTCGECLSSGDPHCGWCALHNMCSRRDKCQQAWEPNRFAASISQCVSLAVHPSSISVSEHSRLLSLVVSDAPDLSAGIACAFGNLTEVEGQVSGSQVICISPGPKDVPVIPLDQDWFGLELQLRSKETGKIFVSTEFKFYNCSAHQLCLSCVNSAFRCHWCKYRNLCTHDPTTCSFQEGRINISEDCPQLVPTEEILIPVGEVKPITLKARNLPQPQSGQRGYECVLNIQGAIHRVPALRFNSSSVQCQNSSYQYDGMDISNLAVDFAVVWNGNFIIDNPQDLKVHLYKCAAQRESCGLCLKADRKFECGWCSGERRCTLHQHCTSPSSPWLDWSSHNVKCSNPQITEILTVSGPPEGGTRVTIHGVNLGLDFSEIAHHVQVAGVPCTPLPGEYIIAEQIVCEMGHALVGTTSGPVRLCIGECKPEFMTKSHQQYTFVNPSVLSLNPIRGPESGGTMVTITGHYLGAGSSVAVYLGNQTCEFYGRSMSEIVCVSPPSSNGLGPVPVSVSVDRAHVDSNLQFEYIDDPRVQRIEPEWSIASGHTPLTITGFNLDVIQEPRIRVKFNGKESVNVCKVVNTTTLTCLAPSLTTDYRPGLDTVERPDEFGFVFNNVQSLLIYNDTKFIYYPNPTFELLSPTGVLDQKPGSPIILKGKNLCPPASGGAKLNYTVLIGETPCAVTVSETQLLCEPPNLTGQHKVMVHVGGMVFSPGSVSVISDSLLTLPAIVSIAAGGSLLLIIVIIVLIAYKRKSRENDLTLKRLQMQMDNLESRVALECKEAFAELQTDINELTSDLDRSGIPYLDYRTYAMRVLFPGIEDHPVLRELEVQGNGQQHVEKALKLFAQLINNKVFLLTFIRTLELQRSFSMRDRGNVASLIMTGLQGRLEYATDVLKQLLSDLIDKNLENKNHPKLLLRRTESVAEKMLTNWFAFLLHKFLKECAGEPLFMLYCAIKQQMEKGPIDAITGEARYSLSEDKLIRQQIEYKTLILNCVNPDNENSPEIPVKVLNCDTITQVKEKILDAVYKNVPYSQRPRAVDMDLEWRQGRIARVVLQDEDITTKIEGDWKRLNTLMHYQVSDRSVVALVPKQTSSYNIPASASISRTSISRYDSSFRYTGSPDSLRSRAPMITPDLESGVKVWHLVKNHDHGDQKEGDRGSKMVSEIYLTRLLATKGTLQKFVDDLFETLFSTVHRGSALPLAIKYMFDFLDEQADRHSIHDTDVRHTWKSNCLPLRFWVNVIKNPQFVFDIHKGSITDACLSVVAQTFMDSCSTSEHRLGKDSPSNKLLYAKDIPSYKSWVERYYADIAKLPAISDQDMNAYLAEQSRLHAVEFNMLSALNEIYSYVSKYSEELIGALEQDEQARRQRLAYKVEQLINAMSIES
median fraction correlated (fc) (PIE-FCCS): 0.09 | stoichiometry N (PIE-FCCS): 2 | median fraction correlated (fc) (Plexin A4): 0.08 | median fraction correlated (fc) (Plexin A4ΔSema): 0.23
